Measurements reported in the RNAGym collection of RNA variant scans (doi:10.1073/pnas.2313332121).

B1: TPR t1 (parent)
chain: GACCAAUCUGCCCUCAGAGCUCGAGAACAUCUUCGGAUGCAGAGGAGGCAGGCUUCGGUGGCGCGAUAGCGCCAACGUCCUCAACCUCCAAUGCAUCCCACCACAUGAUGAUGCCUGAAGAGCCUUGGUUUUUUG

Variants of: B1
Experiment: polymerase ribozyme fitness, log enrichment relative to wild type (log ratio); higher = more active; in vitro selection for triplet polymerase activity
Summary of the method: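 PCR was used to build mutant libraries for each subunit of a heterodimeric triplet polymerase ribozyme, which were then transcribed. A single in vitro selection round, in triplicate, used a frozen incubation at −7 °C and recovered extended constructs by gel excision, streptavidin beads and RT-PCR. Fitness is the logarithm of genotype enrichment relative to wild-type enrichment, averaged over replicates with inverse-variance weights. The logarithm is base 2, and after Illumina sequencing only genotypes with ≥10 input reads and ≥1 read per output were kept.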

Variant | polymerase ribozyme fitness (log ratio)
C11G U21G C53A U55C A68G | -5
C11A A46U G93A | -3.04
C11U C76U | -0.741
C11U C76A | -0.763
C11U G39A | -1.08
C11A G69A C86U | -3.51
C11U C12U C34A G63U U78C C104G G117C | -6.71
C11G C56U | 0.107
C11G C62A U106A | -0.272
C11G G60A G120A G135A | 1.87
C11A G71C G113A | -2.46
C11G C22G G36A A83C | -3.71
C11A C85U U133G | -2.41
C11G A111G G120C G127U | 0.661
C11G A66U U106G | -3.36
C11A A27C | -5.15
C11A G113C | -2.93
C11G G35A A84U | -4.58
C11U C20A G57A C62U U87A | -4.19
C11G C15U G45C | -1.34
C11G G48C G110A | -1.89

Variant | polymerase ribozyme fitness (log ratio)
C11G U32C G35C C97U G120C | -2.23
C11A C12U C40A C56U C89A G122U | -2.66
C11G G36U G63A C98G | -6.37
C11G G69U | 0.709
C11G A16C A37C G60U C89G C114G | -6.69
C11U A29U A91U G107C C114U | -5.83
C11A U32C A37C | -1.07
C11G G39A C53G | -0.759
C11G G42A A121C | 0.0348
C11U C15U G45U C64U U78A C80U C82U A111U | -8.07
C11A C70U | -2.4
C11A C70G | -3.13
C11A C49A C53U A90U U126C | -4.54
C11G A24G C49G U59G | -2.66
C11U C104U U126G | -2.39
C11G G65C | -5.03
C11U A46G G69U | -0.0646
C11G G61A A90U U109G G117A | -6.12
C11G C99U | -2.71
C11U G63U U78C C101A | -4.53
C11U G48U U59C A84G C101A | -2.88

Variant | polymerase ribozyme fitness (log ratio)
C11A G36A G61U G128A | -4.02
C11U G42C G44U C62U | -2.34
C11A G69U G120A U132A | 2
C11G C31U U55C A90G | -4.94
C11G G71A | -0.503
C11G G71C | -0.604
C11U C22G C40U | -3.22
C11G A119G | 0.484
C11A G36C | -2.32
C11A A46U | -2.08
C11G A74U A108G | -2.79
C11G G61U U96C | -0.274
C11A U38G C56U C86G U112C | -2.57
C11A A18U C49A C123G | -2.08
C11A G42U C70U | -3.6
C11U G77U A91U | -1.63
C11A C70U C76A | -3.78
C11G C53U C82U | 0.05
C11G C49A G61A | 1.07
C11A G107C G113A C124A | -6.29
C11A C79U | -1.59

Variant | polymerase ribozyme fitness (log ratio)
C11G C12U A50G G71A U133G | -4.01
C11G A27G G39U G107U A121G U125G | -6.41
C11G G35U C82A A105C C123A C124A | -5.28
C11G G17A | -3.46
C11A U132C | -1.49
C11U G71A U133G | -1.59
C11U G42U G48C C88U G135C | -1.51
C11G G57U U67G G120A | -6.74
C11U A43C G69C G77U U112G U134G | -5.15
C11A U21G G120U C123A | -0.701
C11U C53A G63C A103C G113U | -6.41
C11G G17A C124U | -3.84
C11U C53G C64U C101U U125A | -1.43
C11A U81A | -2.74
C11G C31U G52A U96G G120C | -5.5
C11G C31A | -4.96
C11U C49G U92A C123G | -3.91
C11U C72A | 0.246
C11G G63U | -0.927
C11A C13G U32C A50U G93U U96G U112A U131G | -4.75
C11U A37C G52C C76U | -2.87
